Data taken from patent EP4545563A1 (Foreseen Technology (Beijing) Co., Ltd., dated 2024).

Experiments:
[1] = biological target: T1, ITGA2-His (human, UniProt P17301 30-1132, limits assumed); assay: ELISA, plate coated with 2 ug/mL ITGA2-His, anti-human IgG-Fc-HRP detection
T1 construct: also called ITGA2 protein; not shown: His tag
T1 sequence (looked up): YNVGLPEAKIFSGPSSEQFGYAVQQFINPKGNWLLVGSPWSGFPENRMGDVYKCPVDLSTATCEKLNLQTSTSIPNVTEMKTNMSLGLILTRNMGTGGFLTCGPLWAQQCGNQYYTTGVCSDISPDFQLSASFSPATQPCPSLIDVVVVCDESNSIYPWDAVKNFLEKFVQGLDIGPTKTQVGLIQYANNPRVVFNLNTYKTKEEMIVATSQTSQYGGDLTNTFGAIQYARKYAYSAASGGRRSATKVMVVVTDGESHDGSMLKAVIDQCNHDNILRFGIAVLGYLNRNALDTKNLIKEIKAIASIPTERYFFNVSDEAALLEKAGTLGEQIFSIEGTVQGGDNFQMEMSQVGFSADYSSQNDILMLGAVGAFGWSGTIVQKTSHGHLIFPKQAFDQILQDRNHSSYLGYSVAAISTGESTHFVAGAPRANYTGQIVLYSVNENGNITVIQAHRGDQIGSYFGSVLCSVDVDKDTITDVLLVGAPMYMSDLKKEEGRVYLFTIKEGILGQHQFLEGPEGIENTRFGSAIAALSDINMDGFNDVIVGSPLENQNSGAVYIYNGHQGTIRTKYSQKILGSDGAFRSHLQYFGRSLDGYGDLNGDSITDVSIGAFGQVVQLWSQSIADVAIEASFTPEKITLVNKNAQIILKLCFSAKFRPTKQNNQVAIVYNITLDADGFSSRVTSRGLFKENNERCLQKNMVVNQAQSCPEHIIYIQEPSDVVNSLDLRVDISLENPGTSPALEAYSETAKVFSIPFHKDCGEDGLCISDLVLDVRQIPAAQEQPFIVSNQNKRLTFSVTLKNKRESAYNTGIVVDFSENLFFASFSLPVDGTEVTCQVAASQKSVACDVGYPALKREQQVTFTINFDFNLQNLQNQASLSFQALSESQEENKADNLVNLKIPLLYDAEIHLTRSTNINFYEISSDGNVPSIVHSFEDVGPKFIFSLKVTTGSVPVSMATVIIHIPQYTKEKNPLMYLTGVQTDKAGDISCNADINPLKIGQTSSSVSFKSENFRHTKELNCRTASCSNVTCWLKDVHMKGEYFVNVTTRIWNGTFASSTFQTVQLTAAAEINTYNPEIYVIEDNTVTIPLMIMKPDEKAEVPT

[2] = biological target: T2, ITGA2 protein on the surface of human tumor cells (HuCCT1, A431) (human, UniProt P17301 30-1181); assay: flow cytometry on HuCCT1 cells, goat anti-human IgG (H+L) secondary antibody
T2 construct: whole, on cells; Endogenously expressed on the cell lines; the cell line of each entry is named under assay or readout; also called Integrin alpha-2; ITGA2-positive HuCCT1 cells
T2 sequence (looked up): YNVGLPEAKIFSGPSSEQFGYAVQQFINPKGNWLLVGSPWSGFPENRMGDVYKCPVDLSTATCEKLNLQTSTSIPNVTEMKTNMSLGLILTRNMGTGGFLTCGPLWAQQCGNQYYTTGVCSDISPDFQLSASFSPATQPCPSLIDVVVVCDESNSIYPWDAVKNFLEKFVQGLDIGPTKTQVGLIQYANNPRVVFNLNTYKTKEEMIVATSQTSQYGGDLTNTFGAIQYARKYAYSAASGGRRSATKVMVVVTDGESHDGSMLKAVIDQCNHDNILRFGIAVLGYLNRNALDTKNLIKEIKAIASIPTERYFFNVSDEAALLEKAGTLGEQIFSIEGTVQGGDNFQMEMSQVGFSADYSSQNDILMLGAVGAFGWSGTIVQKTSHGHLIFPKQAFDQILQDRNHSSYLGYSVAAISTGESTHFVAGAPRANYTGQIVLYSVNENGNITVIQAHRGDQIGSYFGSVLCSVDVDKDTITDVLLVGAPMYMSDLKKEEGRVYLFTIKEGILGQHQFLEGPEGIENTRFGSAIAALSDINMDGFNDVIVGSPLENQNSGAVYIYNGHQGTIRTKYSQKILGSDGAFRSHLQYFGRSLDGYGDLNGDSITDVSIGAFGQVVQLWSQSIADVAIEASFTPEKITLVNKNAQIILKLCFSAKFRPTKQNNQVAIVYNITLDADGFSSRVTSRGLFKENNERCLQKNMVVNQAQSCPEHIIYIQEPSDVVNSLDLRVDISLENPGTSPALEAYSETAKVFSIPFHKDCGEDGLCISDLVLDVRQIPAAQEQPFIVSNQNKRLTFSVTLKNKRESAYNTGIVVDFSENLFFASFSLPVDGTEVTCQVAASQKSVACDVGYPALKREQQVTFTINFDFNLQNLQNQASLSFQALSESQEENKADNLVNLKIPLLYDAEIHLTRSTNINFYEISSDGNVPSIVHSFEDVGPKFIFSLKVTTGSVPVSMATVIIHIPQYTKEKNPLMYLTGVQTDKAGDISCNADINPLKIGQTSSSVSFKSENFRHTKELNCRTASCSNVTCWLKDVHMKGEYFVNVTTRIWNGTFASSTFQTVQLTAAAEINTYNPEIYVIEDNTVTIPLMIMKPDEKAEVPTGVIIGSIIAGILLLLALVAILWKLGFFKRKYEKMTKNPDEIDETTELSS

B1: Humanized antibody FS002-A1 (antibody, V domains shown)
VH: QVQLVQSGAEVKKPGASVKVSCKASGYTFTSYYMHWVRQAPGQGLEWMGIINPSGGSTSYAQKFQGRVTMTRDTSTSTVYMELSSLRSEDTAVYYCARDISGSYQTDAFDIWGQGTMVTVSS
VL: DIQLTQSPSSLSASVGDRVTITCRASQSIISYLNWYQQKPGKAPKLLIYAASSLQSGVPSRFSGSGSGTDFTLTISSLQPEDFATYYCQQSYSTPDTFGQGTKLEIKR
notes: IgG1 heavy chain, kappa light chain; expressed in ExpiCHO-s cells, Protein A purified
- EC50 [1]: 0.029 nM
- EC50 [2]: 0.653 nM

B2: Humanized antibody FS002-C15 (antibody, human IgG1, kappa, V domains shown)
VH: QLQLQESGPGLVKPSETLSLTCTVSGGSISSSSYYWGWIRQPPGKGLEWIGSIYYSGSTYYNPSLKSRVTISVDTSKNQFSLKLSSVTAADTAVYYCARLTIFGVVLYWGQGTLVTVSS
VL: EIVLTQSPATLSLSPGERATLSCQASQTFSDYLAWYQQKPGQAPRLLIYDASTRATGIPARFSGSGSGTDFTLTISSLEPEDFAVYYCQQRSHWPPGYTFGQGTRVEIKR
notes: IgG1 heavy chain, kappa light chain
- EC50 [1]: 0.044 nM
- EC50 [2]: 2.13 nM

B3: Humanized antibody FS002-C153 (antibody, human IgG1, lambda, V domains shown)
VH: QVQLQQWGAELVKPGASVKLSCTASGFNIKDTYMHWVKQRPEQGLEWIGRIDPANGNTKYDPKFQGKATITADTSSNTAYLQLSSLTSEDTAVYYCARSYYRYDGYFDVWGAGTMVTVSS
VL: QSALTQPASVSGSPGQSITISCTGTSSDVGGYNYVSWYQQHPGKAPKLMIYDVSNRPSGVSNRFSGSKSGNTASLTISGLQAEDEADYYCSSFTTITTRVFGGGTKLTVLG
notes: IgG1 heavy chain, lambda light chain
- EC50 [1]: 0.087 nM
- EC50 [2]: 3.63 nM

B4: Humanized antibody FS002-C216 (antibody, human IgG1, kappa, V domains shown)
VH: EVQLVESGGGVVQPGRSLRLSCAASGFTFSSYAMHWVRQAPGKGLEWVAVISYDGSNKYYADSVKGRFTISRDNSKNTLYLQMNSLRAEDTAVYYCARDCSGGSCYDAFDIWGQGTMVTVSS
VL: EIVLTQSPATLSLSPGERATLSCRASQSVSSYLAWYQQKPGQAPRLLIYDASNRATGIPARFSGSGSGTDFTLTISSLEPEDFAVYYCQQRTNWLMYTFGQGTKLEIKR
notes: as for B2
- EC50 [1]: 0.073 nM
- EC50 [2]: 0.987 nM

B5: Humanized antibody FS002-C241 (antibody, human IgG1, lambda, V domains shown)
VH: RLQLQESGPGLVKPSETLSLTCTVSGGSISSSSYYWGWIRQPPGKGLEWIGSIYYSGSTYYNPSLKSRVTISVDTSKNQFSLKLSSVTAADTAVYYCARRYSYGRDAFDIWGQGTMVTVSS
VL: QSALTQPASVSGSPGQSITISCSGTSSDIGRYNYVSWYQQHPGKAPKLLIFDVSNRPSGVSNRFSGSKSGNTASLTISGLQAEDEADYYCSSYTSTVPYVFGTGTRVAVQG
notes: as for B3
- EC50 [1]: 0.116 nM
- EC50 [2]: 2.41 nM

B6: Humanized antibody FS002-C330 (antibody, V domains shown)
VH: QLQLQESGPGLVKPSGTLSLTCAVSGGSISSSNWWSWVRQPPGKGLEWIGEIYHSGSTNYNPSLKSRVTISVDKSKNQFSLKLSSVTAADTAVYYCARAHSRYYYGLDYWGQGTLVTVSS
VL: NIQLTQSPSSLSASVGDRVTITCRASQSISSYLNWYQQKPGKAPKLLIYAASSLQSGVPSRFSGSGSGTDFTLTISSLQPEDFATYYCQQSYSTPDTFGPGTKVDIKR
notes: as for B2
- EC50 [1]: 0.103 nM
- EC50 [2]: 2.07 nM

B7: Humanized antibody FS002-C375 (antibody, human IgG1, kappa, V domains shown)
VH: QVQLQESGPGLVKPSQTLSLTCTVSGGSISSGGYYWSWIRQHPGKGLEWIGYIYYSGSTYYNPSLKSRVTISVDTSKNQFSLKLSSVTAADTAVYYCARVGVALHYGMDVWGQGTTVTVSS
VL: EIVLTQSPATLSLSPGERATLSCRASQSVSSYLAWYQQKPGQAPRLLIYDASNRATGIPARFSGSGSGTDFTLTISSLEPEDFAVYYCQQRSNWPLTFGGGTKVEIKR
notes: as for B2
- EC50 [1]: 0.073 nM
- EC50 [2]: 2.17 nM

B8: Humanized antibody FS002-C417 (antibody, human IgG1, kappa, V domains shown)
VH: EVQLVESGGVVVQPGGSLRLSCAASGFTFDDYTMHWVRQAPGKGLEWVSLISWDGGSTYYADSVKGRFTISRDNAKNTLYLQMNSLRAEDTAVYYCARDTGYAMDVWGQGTMVTVSS
VL: NIQMTQSPSSLSASVGDRVTITCRASQSISSYLNWYQQKPGKAPKLLIYAASSLQSGVPSRFSGSGSGTDFTLTISSLQPEDFASYYCQQSYSSWAFGQGTKVEIKR
notes: as for B2
- EC50 [1]: 0.156 nM
- EC50 [2]: 68.4 nM

B9: Humanized antibody FS002-C58 (antibody, human IgG1, kappa, V domains shown)
VH: EVQLLESGGGVVQPGRSLRLSCAASGFTFSSYAMHWVRQAPGKGLEWVAVISYDGSNKYYADSVKGRFTISRDNSKNTLYLQMNSLRAEDTAVYYCARGKYNWFDPWGQGTLVTVSS
VL: EIVLTQSPATLSLSPGERATLSCRASQSVYSSLAWYQQKPGQAPKLLIYDASNRATGVPARFSGSGSGTDFTLTISSLEPEDFALYYCQHRQHWPLTFGGGTKVEIKR
notes: as for B2
- EC50 [1]: 0.279 nM
- EC50 [2]: 9.48 nM

B10: Humanized antibody FS002-C9 (antibody, human IgG1, kappa, V domains shown)
VH: QVQLLESGPGLVKPSQTVSLTCTVSGVSISRGVYSWSWIRQHPGKGLEWIGFIDYNGRTDYNPSLKSRVTISQDTSKNDFSLKLTSVTAADTAIYYCARGLHAFDIWGQGTMVTVSS
VL: NIQMTQSPPSLSASVGDRVAITCRASQDISNSLAWYQQKSGQPPKLLLYDVSKLERGVPSRFSGSGSRTDYTLTISSLQPEDFATYYCQQYSSDPTFGQGSKLEFKR
notes: as for B2
- EC50 [1]: 12.1 nM
- EC50 [2]: 34.6 nM

B11: Vatelizumab (antibody, V domains shown)
VH: QVQLQESGPGLVKPSETLSLTCTVSGFSLTNYGIHWIRQPPGKGLEWLGVIWARGFTNYNSALMSRLTISKDNSKNQVSLKLSSVTAADTAVYYCARANDGVYYAMDYWGQGTLVTVSS
VL: DFVMTQSPAFLSVTPGEKVTITCSAQSSVNYIHWYQQKPDQAPKKLIYDTSKLASGVPSRFSGSGSGTDYTFTISSLEAEDAATYYCQQWTTNPLTFGQGTKVEIK
- EC50 [1]: 0.023 nM
- EC50 [2]: 0.793 nM

B12: Humanized antibody FS002-A10 (antibody, human IgG1, kappa, V domains shown)
VH: QVQLQQSGPGLVKPSQTLSLTCAISGDSVSSDSAAWNWIRQSPSRGLEWLGRTYYRSKWYNDYAVSVKSRITINPDTSKNQFSLQLNSVTSDDTAVYYCARGSWAAPWLWGQGTLVTVSS
VL: NIQLTQSPPFLSASVGDRVTITCRASQDISSFLAWYQQKPGKAPNLLIHAATTLQSGVPSRFSGSGSGTEFTLTISSLRPEDFATYYCQQLHTYPITFGQGTRLEIKR
notes: as for B2
- EC50 [1]: 0.021 nM
- EC50 [2]: 1.13 nM

B13: Humanized antibody FS002-A15 (antibody, human IgG1, kappa, V domains shown)
VH: RLQLQESGPGLVKPSQTLSLTCTVSGGSISSGGYYWSWIRQHPGKGLEWIGYIYYSGSTYYNPSLKSRVTISVDTSKNQFSLKLSSVTAADTAVYYCARATIYGYFDYWGQGTLVTVSS
VL: EIVLTQSPATLPLSPGERATLSCRASQSVGFYLAWYQQKPGQPPRLLFYDASKRATGIPARFSASGSGTDFTLTISGLEPEDFAVYYCQHRISWPLTFGQGTKVEVKR
notes: as for B2
- EC50 [1]: 0.028 nM
- EC50 [2]: 0.927 nM

B14: Humanized antibody FS002-A36 (antibody, human IgG1, kappa, V domains shown)
VH: QVQLQESGPGLVKPSQTLSLTCTVSGGSISSGGYYWSWIRQHPGKGLEWIGYIYYSGSTYYNPSLKSRVTISVDTSKNQFSLKLSSVTAADTAVYYCARVRLLGGGFDIWGQGTTVTVSS
VL: EIVLTQSPATLSLSPGERATLSCRASQSVSTYLAWYQQKPGQAPRLLIYDTSIRATGIPARFSGSGSGTDFTLTISSLEPEDFAVYYCQQRSNWPLTFGGGTKVEIKR
notes: as for B2
- EC50 [1]: 0.022 nM
- EC50 [2]: 0.793 nM
